Read-outs that look alike come from different tables or passages of the source.
How the values were obtained:
Assay in all cases: ITC
[1] = target: AP2 µ2 C-terminal subdomain (C-µ2), residues 160-435 of rat µ2 (rat) (UniProt P84092)
[2] = target: T1, AP2 µ2 C-terminal subdomain (C-µ2), residues 160-435 of rat µ2 (rat, UniProt P84092 160-435)
T1 sequence: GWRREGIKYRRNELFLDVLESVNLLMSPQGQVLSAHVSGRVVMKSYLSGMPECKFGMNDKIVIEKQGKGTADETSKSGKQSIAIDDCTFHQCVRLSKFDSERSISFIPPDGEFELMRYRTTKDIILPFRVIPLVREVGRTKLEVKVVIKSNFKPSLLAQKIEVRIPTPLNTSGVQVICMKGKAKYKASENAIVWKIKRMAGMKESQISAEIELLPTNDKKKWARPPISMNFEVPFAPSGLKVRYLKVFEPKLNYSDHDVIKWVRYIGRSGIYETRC

[3] = target: T1, AP2 µ2 C-terminal subdomain (C-µ2), …; remark: listed apart in the source

integrin α4 peptide (QYKSILQE)
Kd [1]: 72 µM

EGFR peptide (FYRLMS)
Kd [1]: 20 µM

B1: α5-integrin peptide (YKLGFFKRSLPYGTAMEKAQLKPPATSDA) (peptide)
peptide: YKLGFFKRSLPYGTAMEKAQLKPPATSDA
Kd [2]: > 300 µM

B2: β1-integrin peptide (peptide)
peptide: KLLMIIHDRREFAKFEKEKMNAKWDTGENPIYKSAVTTVVNPKYEGK
Kd [2]: > 300 µM

B3: TGN38 peptide (DYQRLN) (peptide)
peptide: DYQRLN
Kd [3]: ~4 µM

B4: transferrin receptor peptide (SYTRFS) (peptide)
peptide: SYTRFS
Kd [3]: ~15 µM

B5: α2 integrin peptide (WKLGFFKRKYEKMTKNPDEIDETTELSS) (peptide)
peptide: WKLGFFKRKYEKMTKNPDEIDETTELSS
Kd [2]: ~50 µM

From article PMC5130146 (Nature structural & molecular biology, 2016)
